Reference: the nanobody polyreactivity screen of Harvey et al. (2022)

Assay: yeast display, Sf9 membrane polyspecificity reagent, FACS + sequencing; frameworks hold sequencing errors
Summary of the method: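 Sorting gates, low and high (top ~1%), were placed on anti-HA fluorescence to track expression and on streptavidin fluorescence to track reagent binding. A clone's polyreactivity label is taken from the gate it came out of. The reagent was 10% biotinylated, detergent-solubilized Sf9 membrane, applied for 1 hour at 4 °C to galactose-induced yeast display cells.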

Row | Sequence | polyreactivity (PSR sort gate)
1 | QVQLVESGGGLVQAGGILRLSCAASGFTFKANAMGWYRQAPGKERELVAAISRRGSSTYYADSVKGRFTISRDNAKNTVYLQMNSLKPEDTAVYYCNTKPRAGRTKLGYWGQGTQVTVSS | high polyreactivity
2 | QVQLVESGGGLVQAGGILRLSCAASGFTFNNYAMGWYRQAPGKERELVAAISSGAGTYYAESVKGRFTISRDNAKNTVYLQMNSLKPEDTGVYYCNASLKYQGRTRITYRHDYCGQGTQVTVSS | low polyreactivity
3 | QVQLVESGGGLVQAGGILRLSCAASGGIFADYAMGWYRQAPGKERELVADISARGGSTYYADSVKGRFTISRDNAKNTVYLQMNSLKPEDTAVYYCAADALGYDYYYWGQGTQVTVSS | low polyreactivity
4 | QVQLVESGGGLVQAGGILRLSCAASGIIFGPNAMGWYRQAPGKERELVAAITSGGRTYYADSVKGRFTISRDNAKNTVYLHMNSLKPEDTAVYYCAARVWSWRSKYDYWGQGTQVTVSS | high polyreactivity
5 | QVQLVESGGGLVQAGGILRLSCAASGIISYDYDMGWYRPSPGKERELVAAISTSGGTTYYADSVKGRFTISRDNAKNTVYLQMNSLKPEDTAVYYCAADNYVGYHWYNYWGQGTQVTVSS | high polyreactivity
6 | QVQLVESGGGLVQAGGILRLSCAASGITFIRNGMGWYRQAPGKERELVAAISDTGARTYYADSVKGSFTISRDNAKNTVYLQMNSLKPVDTAVYYCAAEVRTRYLYSFRWYDYWGQGTQVTVSS | low polyreactivity
7 | QVQLVESGGGLVQAGGILRLSCAASGLTYFYYAMGWYRQAPGKESELVAAISWSGGRTYYADSVKGRFTISRDNAKNTVYLPMNSLKPEDTAVYYCAADYITAHSSYSTYGYWGQGTQVTVSS | low polyreactivity
8 | QVQLVESGGGLVQAGGILRLSCAASGRIFLYYTMGWYRQAPGKEREFVAAITRSGSSTYYADSVKGRFTISRDNAKNTVYLQMNSLKREDTAVYYCNRVFTWRYGYRYEYWGQGTHVTVSS | high polyreactivity
9 | QVQLVESGGGLVQAGGILRLSCAASGRIFRFYTMGWYRQAPGKERELVAAITSSGRTYYADSVKGRVTISRDNAKNTVYLQMNSLKPEDTAVYYCNKYFRPRTILASPGEYWGQGTQVTVSS | high polyreactivity
10 | QVQLVESGGGLVQAGGILRLSCAASGRIFYINAMGWYRQAPGKERELVATISWSGGSTNYADSVKGRFTISRDNAKNTVYLQMKSLIPEDTAVYYCAADSRIYIAYAVRSYERDYWGQGTQVSVSS | low polyreactivity
11 | QVQLVESGGGLVQAGGILRLSCAASGRIIQRYAMGWYRQAPGKERELVAAISSSGVSTYYADSVKGRFTISRDNAKNTVYLQMNSLKPEDTAVYYCNAVSSRVYRDYGYDYWGQGTQVTVSS | low polyreactivity
12 | QVQLVESGGGLVQAGGILRLSCAASGRTFLVNAMGWYRQAPGKERELVAAISQRGGSTDYADSVKGRFTISRDNAKNTVYLQMNSLKPEDTAVYYCAVRWGYLYDYWGQGTQVTVSS | low polyreactivity
13 | QVQLVESGGGLVQAGGILRLSCAASGRTFNGNAMGWYRQAPGKERELVAAISGGSTSYADSVKGRFTISRDNAKNTVYLQMNSLKPEDTAVYYCATDPSEEYDYWGQGNQVTVSS | low polyreactivity
14 | QVQLVESGGGLVQAGGILRLSCAASGRTFNQNAMGWYRQAPGKERELVAAITSRGGSTFYAASVKGRFTISRDNAKNTVYLQMNSLKPEDTAVDYCAAPRKQLEVGPGYYWGQGTQVTVSS | high polyreactivity
15 | QVQLVESGGGLVQAGGILRLSCAASGRTFSRYAMGWYRQAPGKERELVAAITWDGGSTYYADSVKGRFTISRDNAKNSVYLLMNSLKPEDTAVYYFAARYIRNRMNYWGQGTQVTVSS | high polyreactivity
16 | QVQLVESGGGLVQAGGILRLSCAASGRTLYHYVMGWYRQAPGKERELVAAISSGGSTYYADSVKGRFTISRDNAKNTVYLQMNSLKPEDTEVYYCAAGRRGDWGQGTQVTVSS | high polyreactivity
17 | QVQLVESGGGLVQAGGILRLSCAASGSIFDFYAMGWYRQAPGKERELVAAISGSGGSTYYADSVKGRFTISRDNAKNTVYLQMNSLKPEDTAVYYCSYYYWGQGTQVTVSS | low polyreactivity
18 | QVQLVESGGGLVQAGGILRLSCAASGSIFGGYGMGWYRQAPGKERELVAAITSVSSTYYADSVKGRFTISRDNAMNTVYVQMNSLKPEDTAVYYCAARPYPHSAYEGDYWGRGTQVTVSS | low polyreactivity
19 | QVQLVESGGGLVQAGGILRLSCAASGSIFPNYAMGWYRQAPGKEREFVAAISSSGGSTYYADYVKGRFTISRENAKNTVYLQMNSLKPDDTAVYYCAAAYVGYYYSRGFDYWGQGTQVTVSS | high polyreactivity
20 | QVQLVESGGGLVQAGGILRLSCAASGSIFQYNAKGWYIQEPGKEREFVAAISGSGTTTYYADSVKGRFTISRDNAKNTVYLQMNSLKPEDTAVYYCAKAIRHYPDVAYNAWGQGSQVTVSS | high polyreactivity
21 | QVQLVESGGGLVQAGGILRLSCAASGSIFRNYAMGWYRQAPGKERELVAAISVRGGSTYYADSVKGRFTISRDNTKNTVYLQMNSLKPEDTAVYYCNARTYYPVYYRDGGYWGQGTQVTVSS | high polyreactivity
22 | QVQLVESGGGLVQAGGILRLSCAASGSIFSGYAMGWYRQAPGKERELVAAITWRAASTYYADSVKGRFTISRDNAKNTVYLQMNSLKPEDTAVYYCAKEGWPKPAFYYWGQGTQVTVSS | low polyreactivity

Row | Sequence | polyreactivity (PSR sort gate)
23 | QVQLVESGGGLVQAGGILRLSCAASGSIFSPYVMGWYRQAPGKERELVAAISTGGSTYYADSVKGRFTISRDNAKNTVYLQMNSLKPEDTAVYYCATDGWKQSAYDYWGQGTQVTVSS | low polyreactivity
24 | QVQLVESGGGLVQAGGILRLSCAASGSTFFSNTKGWYRQAPGKERELVAAITDSGTSTYYADSVKGRFTISRDIAKNTVYLQMNSLKPEDTAVYYGDAYPSGWYDYWGHGTQVTVSS | low polyreactivity
25 | QVQLVESGGGLVQAGGILRLSCAASGSTFQSNAMGWYRQAPGKERELVAAISSSAGTTFYADSVKGRFTISRDNAKNTVYLQMNSLKPEDTAVYYCAKKDFYFAPSPGYYRSRDYWGQGTQVTVSS | low polyreactivity
26 | QVQLVESGGGLVQAGGILRLSCAASGSTIEFNAMGWYRPAPGKERELVAAISGSGASTYYADSVKGRFTISRDNAKNTVYLQMNSLTPEDTAVYYCNADSLYYDYQTVVVQALDYWGQGTQVTVSS | low polyreactivity
27 | QVQLVESGGGLVQAGGILRLSCAASGSTLGFNAMGWYRLAPGKEREFDAGISASGSSTYYADSVKGRFTISRDNAKNTVYLQMNSLKPEDTAVYYCYAPRGSRRSYRRTEFYYWGQGTQVTVSS | high polyreactivity
28 | QVQLVESGGGLVQAGGILRLSCAASGSTTYYYAMGWYRQQPGKDRELVATISTTGAGTYYADSVKGRFTISRDNAKNTVYLQMNSLKPEDTAVYYCAKDGKASRDDAEYDYWGQGTQVTVSS | low polyreactivity
29 | QVQLVESGGGLVQAGGILRLSCAASGYNFKYYAMGWYRQAPGKERELVAAISRSGGSTYYADSVKGRFTISRDNAKNTVYLQMNSLTPEDTAVYYCAAYTHYAYGHDYWGQGTQVTVSS | high polyreactivity
30 | QVQLVESGGGLVQAGGILRLSCAAYGRTSSYTMGWDIQANGQERELVAAITRRGGSTYYADSVKGRFTISRDHAKNSVYLQMNSLKPEDTAVYYCAASYRGEYDYWGQGTQVTVSS | high polyreactivity
31 | QVQLVESGGGLVQAGGILRLSCADSGRTFGSNAMGWYRQAPGKERELVAAISGRTDSTYYADSVKGRFTISRDNAKNTVYLQMNSLKPEDTAVYYCAADSADVLYYYIRYNYWGQGTQVTVSS | low polyreactivity
32 | QVQLVESGGGLVQAGGILRLSCAPYGSIFSQNAMGWYRQAPGKERELVAAISSSGTRTYYADSVKARFTISRDNAQNTVYLQMNSLKPEDTAVYYSNKVHFLPRYFLRSDYWGQGTQVTVSS | high polyreactivity
33 | QVQLVESGGGLVQAGGILRLSCASSVTFFMGWYRQAPGKEWELVAGISISDVSTYYADSVKGRFTISRDNAKNTVYLQMNSLKPEDTAVYYCAAEFYPTTGFDYWGQGTQVTVSS | low polyreactivity
34 | QVQLVESGGGLVQAGGILRLSCASYGSTFALYAMGWYRPAPGKERELVATITGSGGITYYADSVKGRFTISRDNAKNTVYLQMNSLKPVDTAVYYCAADPYTLYWYYWYGTSGFDYWGQGTQVTVSS | low polyreactivity
35 | QVQLVESGGGLVQAGGILRLSCDASGFTFYYYTMGWYRQAPGKERELVAAISKSGGTTYYADSVKGRFTISRDNAKNTVYLQMNSLKPEDTAVYYCAAKPWVWVYARYGKHPSYDYWGQGTQVTVSS | high polyreactivity
36 | QVQLVESGGGLVQAGGILRLSCDASGITFSTYAMGWYRQAPGKERELVAAITRSGGTYYADSVKGSFTISRDNAKNTVYLQMNSLKPEDTAVYYCAASYTVFGVRRYGYWGQGTQVTVSS | high polyreactivity
37 | QVQLVESGGGLVQAGGILRLSCDASGLIFGPYTMGWYRQAPGKERELVAAISYGGVSTYYADSVKGRFTISRDNAKNTVYLQMNSLKPEDTAVYYCARGDSTRVIRPSAREYDYWGQGTQVTVSS | low polyreactivity
38 | QVQLVESGGGLVQAGGKLRLSCAASGSIFSDYTMGWYRQAPGKERELVAVITLSSGSTYYADSVKGRFTISRDNAKNTVYLQMNSLKPEDTAVYYCAADGWYYFGSGVFEYDYWGQGTQVTVSS | low polyreactivity
39 | QVQLVESGGGLVQAGGNLLLSCAASGFNFVDYAMGWSRQAPGKERELVASIDRSDGSTYYADSVKGRFTFSRDNAKNTVYLLMNSLKPEDTAVYYCAAADQLYSISTGDYWGQGTQVTVSL | low polyreactivity
40 | QVQLVESGGGLVQAGGNLRLSCAASGNIFYVYAMGWYRQAPGKERELVAAITRSGGRTYYADSVKGRFTISRDNAKNTVYLQMNSLKPEETAVYYCAADRGVTRQKMDYWGQGTQVTVSS | low polyreactivity
41 | QVQLVESGGGLVQAGGPLRLSCAASGYLFSYYAMGWSRQAPGKERELVATIDWGGGSTYYADSVKGRFTISRDNANNTVYLQLNSLKPEDTAVYYCSKDYYINKYGYRYDSWGQGTQVTVSS | low polyreactivity
42 | QVQLVESGGGLVQAGGRLLLSCAASGFTFYTYAMGWYRQAPGKERELVADISSGGSTNYADSVKGRFTISRDNAKNTVYLQMNSLKPEDTAVYYCSADYYFLDWYDYWGQGTQVTVSS | low polyreactivity
43 | QVQLVESGGGLVQAGGRLRISCAASGAIFGEYPMGWYSQAPGKERELVADITTGGNTNYADSVKGRFTITRDNAKNTVYVHMNSLKPEDTAVYYCIAYGNTYGYWWFGYWGQGTQVNVSS | low polyreactivity
